This passage reports binding, Km and Vmax results from article PMC9791040, “CtrA activates the expression of glutathione S-transferase conferring oxidative stress resistance to Ehrlichia chaffeensis” (Frontiers in Cellular and Infection Microbiology, 2022).

The test system of data set [1] is T1, GST-rCtrA (Ehrlichia chaffeensis), ORF:1c7d897d.
T1 sequence: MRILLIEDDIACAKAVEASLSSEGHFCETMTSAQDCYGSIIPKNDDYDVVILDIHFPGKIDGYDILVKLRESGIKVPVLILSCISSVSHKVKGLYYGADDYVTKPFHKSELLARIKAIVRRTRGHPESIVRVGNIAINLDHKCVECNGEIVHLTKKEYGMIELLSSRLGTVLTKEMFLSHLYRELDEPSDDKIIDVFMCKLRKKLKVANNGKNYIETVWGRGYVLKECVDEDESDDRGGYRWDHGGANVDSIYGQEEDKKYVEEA
Kind of data set: EMSA. (In general: Mobility shift assays separate free from complexed probe on a gel.)

Data set [2] deals with NCC(=O)O. The data set can be described thus: inorganic phosphate formation, ascorbic acid-molybdate, OD750. It is filed as biochemical, Ehrlichia chaffeensis. The note with it: 10 mM Na3ATP, 5 mM gamma-glutamylcysteine, 20 mM MgCl2, 50 mM KCl, 2 mM EDTA, 2.5 mM DTT, 100 mM Tris-HCl pH 8.2, 37°C, 30 min. An excerpt:
inorganic phosphate formation, ascorbic acid-molybdate, OD750 on rGshB (E. chaffeensis GshB)

Substrate in data set [3]: N[C@@H](CCC(=O)O)C(=O)O
The description is as above. It is filed as biochemical, Ehrlichia chaffeensis. The note with it: 5 mM ATP, 10 mM L-alpha-aminobutyric acid, 20 mM MgCl2, 50 mM KCl, 2 mM EDTA, 100 mM Tris-HCl pH 8.0, 37°C, 30 min. The source says: inorganic phosphate formation, ascorbic acid-molybdate, OD750 on SUMO-rGshA (E. chaffeensis GshA)

Regarding “ATATAACCTAATAGTGACAAATAAATTAACAATAGTAGAAGTGTCATATAAAAGCAAGTCAGAATATAAATTTTTGTATAAAATATCGGTAACTTTTGTAAGGAAAATTTAATATATTACGTCAGGTAAGTAATAGCAAAAAAACTGGTTAAGTATAGTATCATGTGTAAAGGTGAGAAAAACAGCACTTATAAACTAGTCCCCCCCCCCCCCCTCTTATTGCTACATTCTTTTGCCACTATTTTTATTTACCTGCAGCA (double strand) [p28 promoter probe, 260 bp]”, in data set [1], the binding result is “no binding”. As for “rGshB (E. chaffeensis GshB) (Ehrlichia chaffeensis str. Arkansas)”, in data set [2], the Km came out at 940 ± 320 µM and the Vmax came out at 0.63 µmol/min/mg.

B1: SUMO-rGshA (E. chaffeensis GshA) (Ehrlichia chaffeensis str. Arkansas) (protein)
chain: MTVIIDTLNDILTKYKLDIENWFFNKFTKYNPVLNISVDLRVSDYKIAPVDTNIFPAGYNNFTEQSQIYASRLLREYVVNYANCSKILIIAENHTRNLKYIDSLIVLKNIVNNAGFVVEVGICNINQNIELISSTGRVINCLCLTNDNGVLRAGCRFIPDLILVNNDMTSGIPEVLQGLKYQSIMPSLFLGWFNRSKSNHFSIYKKLSKEFCESFNIDPWLISAFFSSCSNICFFNSQGIDDIANEVDVVISKIRNKFQLYSIKEQPYVFVKADNGTYGMGILVAYCGDDILMLNRKKRNKMKKIKDGNVVSSVIIQEGITTREIFNGYVAEPLVYFIGHTPSCYLYRYHSVKDRFSNLNSVGCDFIDISYKQQDILYWNIIGKIAVLAAAIEMHEISNVNVMEQNCLLS
notes: tag kept
Regarding B1, in data set [3], the Km was determined as 1030 ± 20 µM and the Vmax was determined as 0.52 µmol/min/mg.

Usually Km stands for the concentration of substrate that gives half-maximal velocity. As a reminder, the Vmax is the rate approached at saturating substrate.
